These results are taken from patent US20110027820A1.

The target in this assay is Gal4 DNA binding domain (DBD) fused to the RXR ligand binding domain (GBD:RXR) (yeast; human) (UniProt P04386). The experiment in a line: cell-based or functional assay.

Substance “human nuclear receptor coactivator ACTR fused to the yeast Gal4 activation domain (ACTR:GAD) (from UniProt Q9Y6Q9 1-1424)” gave an increase in the sensitivity of chemical complementation (yeast growth in response to 9cRA) against GBD:RXR alone of 1000 fold.
